Assay results reported in the supplement of paper PMC10567573.

B1: JUNB (parent)
chain: FVKALDDLHKMNHVTPPNVSLGAT
B2: MGC27345 (parent)
chain: KYMPHLCQDSSGEVSCQCQLHPPR

Variants of: B1
Test: protein stability index of a GFP-peptide fusion (GPS, HEK-293T) (PSI 1-6); higher = more stable
Conditions: c terminus: a fixed tail appended
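Further: lentivirally expressed fusions sorted by FACS into six bins by GFP to DsRed ratio, PSI derived from sequencing read proportions per bin multiplied by bin number.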

Protein stability index: each site, then its substitutions
K3: I 1.98 | G 2.12 | H 2.23 | A 1.69 | V 1.96 | M 1.74 | W 2.47 | C 3.29 | S 2.72 | D 2.23 | F 3.15 | R 1.76 | N 1.86 | L 1.66 | Q 1.94 | E 2.44 | Y 1.73 | P 2.97 | T 2.02
A4: E 2.13 | C 1.63 | D 2.24
F1: T 4.37 | E 4.27 | M 3.6 | A 4.1 | Y 1.54 | V 3.59 | C 2.61 | Q 3.52 | H 4 | S 4.09 | L 3.29 | I 2.84 | K 3.92 | W 2.51 | R 4.38 | P 4.57 | G 4.05 | D 4.6 | N 3.95
V2: S 4.07 | G 3.5 | K 3.07 | M 2.7 | T 3.33 | A 2.96 | Y 2.51 | P 3.05 | L 2.79 | D 4.22 | F 2.03 | H 3.07 | I 2.22 | C 2.96 | Q 3.18 | R 3.54 | N 4.52 | E 3.98 | W 2.47

Variants of: B2
Test: as above
Conditions: c terminus: a fixed tail appended

Protein stability index, by site and new letter:
L20: F 2.13 | H 3.1 | I 2.79 | P 3.73 | K 2.04 | G 1.85 | E 3.1 | V 2.17 | D 2.73 | Q 2.34 | T 2.12 | M 2.73 | C 2.44 | Y 2.05 | N 2.56 | W 1.82 | A 2.37 | S 2.49
C16: T 2.96 | D 3.88 | V 2.85 | W 2.38 | G 4.1 | F 2.16 | S 2.03 | H 3.05 | I 1.93 | Y 3.13 | K 3.58 | N 3.1 | A 3.38 | Q 3.99 | L 2.94 | E 4.02 | M 2.9 | P 3.31 | R 3.1
G12: C 2.38 | Q 2.8 | I 1.47 | A 2 | R 1.69 | L 2.08 | F 1.34 | P 1.96 | D 2.52 | M 1.88 | H 2.69 | T 1.87 | K 1.59 | N 1.67 | Y 1.53 | E 2.1
S10: Y 4.19 | A 2.06 | E 2.57 | K 2.02 | G 2.08 | L 1.57 | Q 2.26 | N 2.08 | P 2.05 | I 2.63 | M 2.39 | C 2.73 | T 1.97 | H 2.91 | V 1.56 | W 1.6 | R 1 | D 2.94 | F 2.65
S11: E 2.42 | K 2.28 | T 2.1 | Q 1.63 | Y 1.52 | L 2.04 | P 1.72 | C 2.5 | A 2.53 | M 2.12 | F 1.58 | W 1.28 | V 1.45 | D 2.13 | I 1.71 | G 3.17 | N 2.55 | R 1.66 | H 2.16
H21: N 2.31 | T 3.51 | Q 4.58 | F 1.63 | P 3.07 | K 2.7 | Y 2.06 | L 1.51 | S 2.86 | R 1.69 | D 2.6 | I 2.75 | E 3.34 | A 3.18 | C 2.65
Q19: A 2.45
